Data as given in the supplement of paper PMC10065799, “High-throughput profiling of sequence recognition by tyrosine kinases and SH2 domains using bacterial peptide display” (eLife, 2023).

What was measured:
[1] = biological target: c-Src SH2; assay: SH2 binding enrichment of the phosphorylated peptide, bacterial display (enrichment ratio); higher = better substrate or ligand; peptides without Tyr show the background
[2] = biological target: Grb2 SH2 (UniProt P62993); assay: as above
[3] = biological target: SHP2-C SH2; assay: as above
[4] = biological target: Hck (UniProt P08631); assay: phosphorylation enrichment, bacterial display (enrichment ratio); higher = better substrate or ligand; peptides without Tyr show the background
[5] = tested on: AncSZ; assay: as above
[6] = biological target: EPHB1 (UniProt P54762); assay: as above
[7] = biological target: Fyn (UniProt P06241); assay: as above
[8] = biological target: MERTK (UniProt Q12866); assay: as above
[9] = biological target: FGFR3 (UniProt P22607); assay: as above
[10] = tested on: c-Src; assay: as above
[11] = biological target: Jak2 (UniProt O60674); assay: as above
[12] = tested on: c-Abl (mouse); assay: as above
[13] = biological target: FGFR1 (UniProt P11362); assay: as above
[14] = biological target: EPHB2 (UniProt P29323); assay: as above
[15] = biological target: Fes (UniProt P07332); assay: as above
[16] = tested on: Fer (mouse); assay: as above
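Throughout, for SH2 binding enrichment of the phosphorylated peptide, bacterial display: peptide library displayed on the E. coli surface as eCPX fusions, selected cells deep-sequenced, score is each peptide's frequency after selection divided by its frequency in the input.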
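Throughout, for phosphorylation enrichment, bacterial display: 11-residue human phosphosite peptides and single-mutation variants displayed on the E. coli surface, counted by deep sequencing, each peptide's frequency after selection divided by its frequency in the unselected input library; frequency after pTyr selection over input frequency; kinase dosed for 20-30% of maximal phosphorylation in three min.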

FGFR1, sequence (P11362 whole entry, looked up): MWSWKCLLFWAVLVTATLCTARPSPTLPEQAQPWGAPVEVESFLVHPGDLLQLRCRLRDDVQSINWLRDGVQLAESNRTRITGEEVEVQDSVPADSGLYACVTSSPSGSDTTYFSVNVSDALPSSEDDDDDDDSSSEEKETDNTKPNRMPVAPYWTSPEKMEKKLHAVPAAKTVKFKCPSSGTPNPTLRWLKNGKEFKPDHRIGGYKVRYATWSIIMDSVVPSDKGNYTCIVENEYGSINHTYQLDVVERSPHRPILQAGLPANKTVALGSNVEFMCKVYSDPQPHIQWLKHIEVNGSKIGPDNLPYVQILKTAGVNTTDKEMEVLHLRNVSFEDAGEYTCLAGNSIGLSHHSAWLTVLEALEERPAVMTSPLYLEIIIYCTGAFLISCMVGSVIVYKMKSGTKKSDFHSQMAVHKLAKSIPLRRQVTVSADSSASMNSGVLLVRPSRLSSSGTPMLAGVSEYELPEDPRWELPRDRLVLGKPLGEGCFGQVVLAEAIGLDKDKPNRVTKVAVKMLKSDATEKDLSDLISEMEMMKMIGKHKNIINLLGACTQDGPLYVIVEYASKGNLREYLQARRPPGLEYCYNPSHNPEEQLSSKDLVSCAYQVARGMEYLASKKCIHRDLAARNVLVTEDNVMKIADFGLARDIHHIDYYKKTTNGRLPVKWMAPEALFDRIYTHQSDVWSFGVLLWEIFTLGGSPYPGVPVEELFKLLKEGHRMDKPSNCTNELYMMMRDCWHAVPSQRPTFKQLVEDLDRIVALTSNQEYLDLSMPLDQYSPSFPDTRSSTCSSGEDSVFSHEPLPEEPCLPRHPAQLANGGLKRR
FGFR3, sequence (P22607 whole entry, looked up): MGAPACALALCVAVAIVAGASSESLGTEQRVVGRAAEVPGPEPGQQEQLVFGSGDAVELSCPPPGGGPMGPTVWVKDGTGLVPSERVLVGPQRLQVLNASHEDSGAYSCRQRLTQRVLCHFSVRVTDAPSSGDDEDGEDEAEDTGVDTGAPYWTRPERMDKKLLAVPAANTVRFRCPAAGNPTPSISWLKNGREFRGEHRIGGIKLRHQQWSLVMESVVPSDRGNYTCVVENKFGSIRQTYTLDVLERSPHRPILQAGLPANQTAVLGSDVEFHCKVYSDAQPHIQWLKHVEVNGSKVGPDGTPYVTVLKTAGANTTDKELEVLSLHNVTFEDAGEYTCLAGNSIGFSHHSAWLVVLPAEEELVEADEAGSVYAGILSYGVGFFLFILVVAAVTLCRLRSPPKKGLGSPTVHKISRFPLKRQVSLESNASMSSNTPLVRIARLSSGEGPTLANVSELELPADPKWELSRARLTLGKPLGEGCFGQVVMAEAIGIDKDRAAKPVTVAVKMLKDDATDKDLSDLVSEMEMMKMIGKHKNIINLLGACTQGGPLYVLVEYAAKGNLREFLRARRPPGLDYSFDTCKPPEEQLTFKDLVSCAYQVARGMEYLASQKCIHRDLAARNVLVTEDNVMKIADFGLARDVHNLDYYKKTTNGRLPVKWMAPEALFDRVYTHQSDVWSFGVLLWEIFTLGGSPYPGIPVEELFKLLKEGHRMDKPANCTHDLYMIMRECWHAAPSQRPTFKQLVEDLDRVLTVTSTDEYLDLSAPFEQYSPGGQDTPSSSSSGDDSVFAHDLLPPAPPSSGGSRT
Jak2, sequence (O60674 whole entry, looked up): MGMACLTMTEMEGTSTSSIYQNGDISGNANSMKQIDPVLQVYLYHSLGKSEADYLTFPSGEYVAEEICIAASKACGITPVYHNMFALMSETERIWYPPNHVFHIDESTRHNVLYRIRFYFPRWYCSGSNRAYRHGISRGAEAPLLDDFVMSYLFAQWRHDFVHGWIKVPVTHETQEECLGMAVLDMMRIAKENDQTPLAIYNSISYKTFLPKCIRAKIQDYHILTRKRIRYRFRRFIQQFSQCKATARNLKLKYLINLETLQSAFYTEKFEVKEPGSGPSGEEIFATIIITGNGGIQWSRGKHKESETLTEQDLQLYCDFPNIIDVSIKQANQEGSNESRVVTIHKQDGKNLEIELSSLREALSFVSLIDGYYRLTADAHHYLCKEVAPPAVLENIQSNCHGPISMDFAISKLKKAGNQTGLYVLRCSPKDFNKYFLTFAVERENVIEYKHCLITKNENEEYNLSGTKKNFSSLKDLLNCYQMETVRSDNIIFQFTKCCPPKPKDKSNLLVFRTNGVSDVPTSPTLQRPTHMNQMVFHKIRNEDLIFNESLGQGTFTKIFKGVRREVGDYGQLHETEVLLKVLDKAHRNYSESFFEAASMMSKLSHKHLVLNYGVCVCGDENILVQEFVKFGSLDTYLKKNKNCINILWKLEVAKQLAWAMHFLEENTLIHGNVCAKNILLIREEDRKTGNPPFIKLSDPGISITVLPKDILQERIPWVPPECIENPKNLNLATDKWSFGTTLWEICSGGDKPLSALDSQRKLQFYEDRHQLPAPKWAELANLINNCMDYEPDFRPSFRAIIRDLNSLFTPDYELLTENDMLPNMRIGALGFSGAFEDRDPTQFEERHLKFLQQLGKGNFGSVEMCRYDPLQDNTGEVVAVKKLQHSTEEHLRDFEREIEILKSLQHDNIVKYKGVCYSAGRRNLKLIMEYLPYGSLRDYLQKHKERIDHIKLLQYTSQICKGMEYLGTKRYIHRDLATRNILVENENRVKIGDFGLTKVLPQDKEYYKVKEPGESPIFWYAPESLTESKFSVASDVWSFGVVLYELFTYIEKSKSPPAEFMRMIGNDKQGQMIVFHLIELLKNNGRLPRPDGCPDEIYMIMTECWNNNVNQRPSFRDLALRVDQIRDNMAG
MERTK, sequence (Q12866 whole entry, looked up): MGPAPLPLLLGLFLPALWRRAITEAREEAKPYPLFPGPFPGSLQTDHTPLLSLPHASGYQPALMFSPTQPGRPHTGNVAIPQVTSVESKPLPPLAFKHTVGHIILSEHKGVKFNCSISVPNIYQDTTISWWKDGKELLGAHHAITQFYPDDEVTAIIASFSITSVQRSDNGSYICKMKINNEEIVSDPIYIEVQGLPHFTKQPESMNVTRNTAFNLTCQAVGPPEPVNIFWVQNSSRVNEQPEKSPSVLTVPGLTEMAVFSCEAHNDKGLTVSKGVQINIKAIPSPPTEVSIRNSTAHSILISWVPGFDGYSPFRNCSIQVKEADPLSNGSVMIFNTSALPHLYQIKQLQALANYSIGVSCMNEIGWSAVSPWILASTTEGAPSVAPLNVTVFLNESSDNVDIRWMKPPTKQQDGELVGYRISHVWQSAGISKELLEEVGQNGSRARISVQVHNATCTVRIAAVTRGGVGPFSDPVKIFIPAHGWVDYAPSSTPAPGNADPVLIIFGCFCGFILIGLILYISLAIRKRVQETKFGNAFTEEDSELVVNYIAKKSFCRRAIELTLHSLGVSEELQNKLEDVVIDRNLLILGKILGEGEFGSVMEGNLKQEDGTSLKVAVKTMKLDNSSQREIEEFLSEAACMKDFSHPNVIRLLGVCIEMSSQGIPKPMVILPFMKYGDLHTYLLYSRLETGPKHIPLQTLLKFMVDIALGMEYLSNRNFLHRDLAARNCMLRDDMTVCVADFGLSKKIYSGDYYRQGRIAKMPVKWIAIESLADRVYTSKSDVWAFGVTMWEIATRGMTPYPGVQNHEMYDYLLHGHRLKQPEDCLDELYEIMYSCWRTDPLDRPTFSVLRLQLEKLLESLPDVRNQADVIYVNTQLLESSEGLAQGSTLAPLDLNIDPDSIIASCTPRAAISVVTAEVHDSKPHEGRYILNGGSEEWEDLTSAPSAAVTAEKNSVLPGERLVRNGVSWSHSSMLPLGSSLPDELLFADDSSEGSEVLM
Hck, sequence (P08631 whole entry, looked up): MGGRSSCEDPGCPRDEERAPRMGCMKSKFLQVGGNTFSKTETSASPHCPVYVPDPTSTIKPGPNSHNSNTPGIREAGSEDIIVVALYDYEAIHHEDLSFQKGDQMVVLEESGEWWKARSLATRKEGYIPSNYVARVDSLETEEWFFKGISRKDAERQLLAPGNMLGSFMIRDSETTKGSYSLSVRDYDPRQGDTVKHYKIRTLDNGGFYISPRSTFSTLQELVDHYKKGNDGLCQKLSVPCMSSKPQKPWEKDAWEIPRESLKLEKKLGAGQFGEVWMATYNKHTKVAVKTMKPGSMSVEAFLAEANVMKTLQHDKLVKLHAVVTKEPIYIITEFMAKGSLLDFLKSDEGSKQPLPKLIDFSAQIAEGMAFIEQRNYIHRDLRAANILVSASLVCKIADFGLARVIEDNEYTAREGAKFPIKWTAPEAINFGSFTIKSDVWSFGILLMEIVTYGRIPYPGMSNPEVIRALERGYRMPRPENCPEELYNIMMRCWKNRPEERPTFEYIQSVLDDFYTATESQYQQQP
Grb2 SH2, sequence (P62993 whole entry, looked up): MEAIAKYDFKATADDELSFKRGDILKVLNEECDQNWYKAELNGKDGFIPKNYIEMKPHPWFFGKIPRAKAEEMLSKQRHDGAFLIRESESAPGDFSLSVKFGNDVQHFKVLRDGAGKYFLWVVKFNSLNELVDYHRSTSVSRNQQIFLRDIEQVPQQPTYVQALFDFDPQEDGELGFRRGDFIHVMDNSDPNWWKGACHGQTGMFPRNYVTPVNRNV
Fyn, sequence (P06241 whole entry, looked up): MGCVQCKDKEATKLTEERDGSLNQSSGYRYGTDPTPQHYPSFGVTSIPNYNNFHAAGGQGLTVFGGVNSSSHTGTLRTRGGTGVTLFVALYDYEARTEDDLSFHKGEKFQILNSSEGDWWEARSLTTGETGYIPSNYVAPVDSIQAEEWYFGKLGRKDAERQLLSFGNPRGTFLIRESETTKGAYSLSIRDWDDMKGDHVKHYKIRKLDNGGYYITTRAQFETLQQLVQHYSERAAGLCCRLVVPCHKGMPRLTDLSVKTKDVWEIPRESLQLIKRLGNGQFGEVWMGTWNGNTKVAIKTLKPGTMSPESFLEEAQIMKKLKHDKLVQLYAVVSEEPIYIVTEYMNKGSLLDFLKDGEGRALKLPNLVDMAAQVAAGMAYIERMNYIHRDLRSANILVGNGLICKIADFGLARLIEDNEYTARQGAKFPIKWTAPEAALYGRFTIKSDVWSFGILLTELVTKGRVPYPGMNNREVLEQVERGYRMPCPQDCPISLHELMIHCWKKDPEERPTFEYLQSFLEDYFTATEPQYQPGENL

| Sequence | SH2 binding enrichment [1] | SH2 binding enrichment [2] | SH2 binding enrichment [3] | phosphorylation enrichment [4] | phosphorylation enrichment [5] | phosphorylation enrichment [6] | phosphorylation enrichment [7] | phosphorylation enrichment [8] | phosphorylation enrichment [9] | phosphorylation enrichment [10] | phosphorylation enrichment [11] | phosphorylation enrichment [12] | phosphorylation enrichment [13] | phosphorylation enrichment [14] | phosphorylation enrichment [15] | phosphorylation enrichment [16] |
| --- | --- | --- | --- | --- | --- | --- | --- | --- | --- | --- | --- | --- | --- | --- | --- | --- |
| VRVQLYDPDFM [CYP4A22_Y100_Y104F] | 0.536 | 0.972 | 0.67 | 0.561 | 1.06 | 0.717 | 0.419 | 1.08 | 0.683 | 0.579 | 1.07 | 0.734 | 0.45 | 0.631 | 1.17 | 0.579 |
| VTAALYGCLFE [BTD_Y536_R538C_YF] | 0.52 | 0.85 | 0.606 | 3.97 | 1.3 | 0.916 | 5.63 | 1.54 | 0.998 | 4.03 | 1.13 | 1.02 | 0.602 | 1.03 | 1.55 | 1.1 |
| VTAALYGRLYE [BTD_Y536] | 1.12 | 0.899 | 0.838 | 5.15 | 0.883 | 1.06 | 5.26 | 2.68 | 0.724 | 4.81 | 0.904 | 0.888 | 0.498 | 1.43 | 1.04 | 1.31 |
| VTQEPYELFCE [CBL_Y368_Q367P_YF] | 0.719 | 1.01 | 0.944 | 0.569 | 1.58 | 0.74 | 0.793 | 0.592 | 0.938 | 1.19 | 0.998 | 0.817 | 0.649 | 0.687 | 1.32 | 1.15 |
| VTRDEYPSNPM [CEMIP2_Y1015_I1010V] | 0.564 | 0.67 | 0.783 | 0.397 | 0.6 | 0.411 | 0.356 | 0.487 | 0.491 | 0.394 | 0.696 | 0.523 | 0.323 | 0.417 | 0.751 | 0.339 |
| VVHGSYDEIEG [SEC24A_Y263_S261G] | 22.5 | 0.801 | 0.604 | 0.469 | 0.914 | 0.424 | 0.395 | 0.431 | 0.591 | 0.536 | 0.887 | 1.07 | 0.395 | 0.387 | 0.9 | 0.594 |
| VVLVSYVPFSQ [SH2B1_Y624_S627F] | 0.906 | 1.28 | 1.03 | 0.648 | 1.29 | 0.716 | 0.55 | 0.496 | 0.771 | 0.833 | 1.38 | 0.938 | 0.526 | 0.702 | 1.37 | 0.501 |
| VYSTDCYRVGG [NTRK2_Y706_Y706C] | 0.601 | 0.903 | 0.538 | 1.38 | 1.07 | 2.13 | 2.56 | 7.43 | 0.769 | 2.23 | 0.972 | 0.808 | 0.787 | 1.01 | 1.16 | 0.824 |
| WIPIQCPIISE [NOG_Y222_Y222C] | 0.513 | 0.871 | 0.885 | 0.563 | 1.31 | 0.818 | 0.551 | 0.373 | 1.04 | 0.433 | 1.12 | 0.836 | 0.54 | 0.591 | 1.41 | 0.54 |
| WISNRYPDFSS [PRPH2_Y184_L185P] | 0.5 | 0.964 | 0.71 | 0.497 | 0.798 | 0.434 | 0.404 | 0.487 | 0.685 | 0.52 | 0.841 | 0.66 | 0.533 | 0.552 | 0.953 | 0.484 |
| WLQKLYNNFVN [MYO5C_Y526] | 1.28 | 1.31 | 1.18 | 0.655 | 1.25 | 0.528 | 0.472 | 0.429 | 0.774 | 0.501 | 1 | 0.874 | 0.459 | 0.57 | 1.4 | 0.483 |
| WRRLIYRCQVG [NR2E3_Y81_R76W] | 0.366 | 0.939 | 0.561 | 0.424 | 0.906 | 0.389 | 0.452 | 0.484 | 0.515 | 0.494 | 0.837 | 0.65 | 0.487 | 0.486 | 0.784 | 0.489 |
| YASALYGQRRS [FGF11_Y162_R163G] | 0.553 | 0.675 | 0.424 | 1.54 | 0.633 | 0.391 | 0.659 | 0.505 | 0.408 | 0.784 | 0.604 | 0.978 | 0.371 | 0.384 | 0.668 | 0.411 |
| YCIDHYLGKEM [G6PD_Y202_R198C] | 1.01 | 0.981 | 1.05 | 0.694 | 0.892 | 0.499 | 0.503 | 0.64 | 0.558 | 0.606 | 0.75 | 0.611 | 0.567 | 0.567 | 0.827 | 0.952 |
| YCRITYDIFPF [INTS13_Y67_M66T] | 1.42 | 0.847 | 0.791 | 2.72 | 1.8 | 3.8 | 1.57 | 2.83 | 1.38 | 2.57 | 1.45 | 1.18 | 1.28 | 3.79 | 1.59 | 0.785 |
| YEPDAYDDLDQ [ELP5_Y302] | 1.07 | 0.767 | 0.764 | 0.548 | 1.26 | 0.542 | 0.496 | 0.403 | 0.842 | 0.482 | 0.919 | 0.769 | 0.56 | 0.523 | 1.19 | 0.663 |
| YETVKYFNNER [ABCB7_Y345] | 9.64 | 0.868 | 1.13 | 1.83 | 0.881 | 0.792 | 1.37 | 0.844 | 1.32 | 1.14 | 0.683 | 0.64 | 1.95 | 0.611 | 0.869 | 9.57 |

| Sequence | SH2 binding enrichment [1] | SH2 binding enrichment [2] | SH2 binding enrichment [3] | phosphorylation enrichment [4] | phosphorylation enrichment [5] | phosphorylation enrichment [6] | phosphorylation enrichment [7] | phosphorylation enrichment [8] | phosphorylation enrichment [9] | phosphorylation enrichment [10] | phosphorylation enrichment [11] | phosphorylation enrichment [12] | phosphorylation enrichment [13] | phosphorylation enrichment [14] | phosphorylation enrichment [15] | phosphorylation enrichment [16] |
| --- | --- | --- | --- | --- | --- | --- | --- | --- | --- | --- | --- | --- | --- | --- | --- | --- |
| YFRDGHMPRQY [GSS_Y270_Y270H] | 0.51 | 1.04 | 0.821 | 0.45 | 0.454 | 0.458 | 0.443 | 0.445 | 0.583 | 0.401 | 1.03 | 0.541 | 0.531 | 0.462 | 0.584 | 0.436 |
| YGGLRYGYGGL [KRTAP20-2_Y13_V17G] | 0.725 | 0.955 | 1.11 | 1.42 | 0.645 | 0.418 | 0.959 | 0.381 | 0.536 | 0.76 | 0.671 | 0.559 | 0.407 | 0.427 | 0.839 | 0.407 |
| YGGRDYSLDEF [MYOF_Y1705] | 0.947 | 0.765 | 0.472 | 0.603 | 0.981 | 0.594 | 0.657 | 0.454 | 0.697 | 0.594 | 0.945 | 0.809 | 0.582 | 0.609 | 1.1 | 0.618 |
| YGSGNYNVFGN [HNRNPA2B1_Y300_D302V] | 0.682 | 0.813 | 0.673 | 0.882 | 0.737 | 0.666 | 0.76 | 0.639 | 0.63 | 0.653 | 0.683 | 0.49 | 0.539 | 0.797 | 0.828 | 0.561 |
| YLELNYKEDEY [MME_Y502] | 4.38 | 0.802 | 0.71 | 1.21 | 1.78 | 0.786 | 0.63 | 0.923 | 3.65 | 0.88 | 1.3 | 0.929 | 4.36 | 0.478 | 1.43 | 0.55 |
| YLNSSYINIST [IL23R_Y178_T175N] | 4.78 | 24.6 | 2.57 | 0.591 | 0.875 | 0.525 | 0.475 | 0.606 | 2.14 | 0.436 | 1.23 | 0.574 | 2.69 | 0.453 | 0.799 | 0.439 |
| YMKEPYIQSRF [HIPK4_Y175_V171M] | 0.865 | 1.12 | 0.832 | 0.36 | 0.622 | 0.364 | 0.461 | 0.659 | 0.623 | 0.563 | 0.855 | 0.632 | 0.611 | 0.392 | 0.703 | 0.488 |
| YNDSAYNQQLI [ZPLD1_Y198_T197A] | 0.388 | 0.833 | 0.552 | 0.48 | 0.987 | 0.455 | 0.49 | 0.388 | 0.68 | 0.418 | 0.696 | 0.634 | 0.499 | 0.527 | 0.93 | 0.46 |
| YPIDHYLGKEM [G6PD_Y202_R198P] | 0.434 | 0.708 | 0.576 | 0.492 | 0.771 | 0.405 | 0.48 | 0.412 | 0.577 | 0.505 | 0.806 | 0.584 | 0.613 | 0.54 | 0.891 | 0.415 |
| YQRITYHNWRH [PDE6B_Y556_R552Q] | 2.5 | 1.62 | 1.68 | 0.579 | 0.59 | 0.386 | 0.446 | 0.482 | 0.618 | 0.486 | 0.561 | 0.485 | 0.626 | 0.483 | 0.619 | 0.461 |
| YRASYYRRGDR [LTK_Y677] | 0.411 | 0.704 | 0.609 | 0.494 | 0.653 | 0.446 | 0.534 | 0.603 | 0.431 | 0.598 | 0.436 | 0.693 | 0.511 | 0.535 | 0.485 | 0.496 |
| YRDMDYRSYPH [RBM10_Y41_R46H] | 0.938 | 0.998 | 0.825 | 0.457 | 0.567 | 0.578 | 0.412 | 0.357 | 2.1 | 0.376 | 0.621 | 0.5 | 3.25 | 0.486 | 0.64 | 0.487 |
| YRQLQYCPSVE [CTNND2_Y508] | 0.472 | 0.678 | 0.488 | 0.606 | 1.11 | 0.661 | 0.538 | 0.483 | 0.928 | 0.476 | 0.857 | 0.861 | 0.545 | 0.591 | 1.31 | 0.637 |
| YSQNIYIQNRN [PKP2_Y631] | 0.691 | 0.896 | 0.906 | 0.633 | 0.804 | 0.424 | 0.443 | 1.43 | 0.483 | 0.528 | 0.59 | 0.6 | 0.482 | 0.569 | 0.706 | 0.489 |
| YTGDIYSNSNL [LZTR1_Y141] | 0.479 | 0.648 | 0.545 | 7.87 | 0.954 | 1.19 | 7.46 | 2.36 | 0.616 | 4.63 | 0.524 | 0.911 | 0.626 | 1.53 | 0.707 | 3.56 |
| YTGNTYRVGDT [FN1_Y106] | 0.406 | 0.766 | 0.55 | 0.486 | 0.666 | 0.448 | 0.441 | 0.389 | 0.534 | 0.467 | 0.563 | 0.569 | 0.439 | 0.424 | 0.775 | 0.415 |
